Data set [1] concerns the target T1, Csa3a (Sulfolobus islandicus REY15A) (UniProt F0NH46).
T1 sequence: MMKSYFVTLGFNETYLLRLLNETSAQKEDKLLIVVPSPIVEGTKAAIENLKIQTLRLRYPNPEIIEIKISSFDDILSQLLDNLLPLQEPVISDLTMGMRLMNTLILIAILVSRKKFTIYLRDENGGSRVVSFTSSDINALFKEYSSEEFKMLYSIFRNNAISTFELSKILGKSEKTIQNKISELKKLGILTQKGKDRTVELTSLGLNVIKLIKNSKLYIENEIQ
Nature of the data set: EMSA. Particulars: EMSA: 20 mM Tris-HCl pH 8.0, 50 mM KCl, 5% glycerol, 1 mM EDTA, 1 mM DTT, 5 ng/ul poly(dI-dC), 10 pmol probe in 20 ul, 40 C 20 min; footprinting: 10 mM ….

Data set [2] concerns the target T2, Csa3a (Sulfolobus islandicus REY15A, UniProt F0NH46 1-224).
T2 sequence: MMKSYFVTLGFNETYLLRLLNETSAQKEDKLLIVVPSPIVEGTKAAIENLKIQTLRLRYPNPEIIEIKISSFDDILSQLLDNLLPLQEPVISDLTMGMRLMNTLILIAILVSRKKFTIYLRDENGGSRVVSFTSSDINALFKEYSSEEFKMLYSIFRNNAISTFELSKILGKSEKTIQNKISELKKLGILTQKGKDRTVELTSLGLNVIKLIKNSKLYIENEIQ
Description: EMSA; Csa3a 0.4-1.6 pmol/ul; EMSA: 20 mM Tris-HCl pH 8.0, 50 mM KCl, 5% glycerol, 1 mM EDTA, 1 mM DTT, 5 ng/ul poly(dI-dC), 10 pmol probe in 20 ul, 40 C 20 min; footprinting: 10 mM Tris-HCl pH 7.4, 10 mM MgCl2, 1 mM CaCl2, 0.4 mM DTT, 100 mM KCl, 5% glycerol, 40 C 20 min. Particulars: protein: recombinant; chain copies: 2; label: 5' biotin.

Data set [3] concerns the target T2, Csa3a. Description: EMSA; Csa3a 2.4-6 pmol/ul; EMSA: 20 mM Tris-HCl pH 8.0, 50 mM KCl, 5% glycerol, 1 mM EDTA, 1 mM DTT, 5 ng/ul poly(dI-dC), 10 pmol probe in 20 ul, 40 C 20 min; footprinting: 10 mM Tris-HCl pH 7.4, 10 mM MgCl2, 1 mM CaCl2, 0.4 mM DTT, 100 mM KCl, 5% glycerol, 40 C 20 min. Particulars: protein: recombinant; chain copies: 2; label: 5' biotin (one strand); blunt.

The target of data set [4] is T2, Csa3a. Description: EMSA; Csa3a 1.6 pmol/ul; EMSA: 20 mM Tris-HCl pH 8.0, 50 mM KCl, 5% glycerol, 1 mM EDTA, 1 mM DTT, 5 ng/ul poly(dI-dC), 10 pmol probe in 20 ul, 40 C 20 min; footprinting: 10 mM Tris-HCl pH 7.4, 10 mM MgCl2, 1 mM CaCl2, 0.4 mM DTT, 100 mM KCl, 5% glycerol, 40 C 20 min. Particulars: protein: recombinant; chain copies: 2; label: 5' biotin (one strand); blunt.

As to “GCAAAAAGAATCTAAAATACACAATAATGATCCTTGTAAATTTCTTCCCGACTTTAGTAAGGATAATCTTAATAAACGACGATTTTCCTCTTGATGAAGAATAATGGAAAATATAGGGAAAGTGTTCTCCCGTATACGATCCTTGTTTTCCTTTTTCCTTGTTTCGTTTTGGGTTAGGTTGTTATCCTAAATTCATTATCTT (double strand) [csa1 promoter P1 (-205 to -4)]”, the binding entry in data set [1] is recorded as “binds”.

As for “TATATTTTCCATTATTCTTCATCAAGAGGAAAATCGTCGTTTATTAAGATTATCCTTACTAAAGTCGGGAAGAAATTTACAAGGATCATTATTGTGTATTTTAGATTCTTTTTGC (double strand) [csa1 promoter P2 (-118 to -4)]”, the binding result in data set [1] is listed as “binds”.

B1: csa1 25-bp minimal region (dsDNA)
DNA 1: ATCCTTACTAAAGTCGGGAAGAAATT
DNA 2: AATTTCTTCCCGACTTTAGTAAGGAT
Consider B1, for which the binding result with Csa3a [2] is “binds”.

B2: cas1 P2 (-35 to -10) (dsDNA)
DNA 1: TTAAGACCTTAATAATATCGGAATAT
DNA 2: ATATTCCGATATTATTAAGGTCTTAA
In the case of B2, the binding result in the data set with Csa3a [3] is reported as “no binding”.

B3: csa1 promoter P3 (-42 to -4) (dsDNA)
DNA 1: TTACAAGGATCATTATTGTGTATTTTAGATTCTTTTTGC
DNA 2: GCAAAAAGAATCTAAAATACACAATAATGATCCTTGTAA
In the case of B3, in the data set with Csa3a [4], the binding result is given as “no binding”.

Source of the values: publication PMC4333418, “Transcriptional regulator-mediated activation of adaptation genes triggers CRISPR de novo spacer acquisition”.
